Publication PMC5675868

What was measured:
[1] = system: T1, Aux1LS20-His6 (p56) (Bacillus subtilis plasmid pLS20cat), ORF:1a040432; test: EMSA; conditions: EMSA: 20 mM Tris-HCl pH 8, 1 mM EDTA, 5 mM MgCl2, 0.5 mM DTT, 100 mM KCl, 10% glycerol, 0.05 mg/ml BSA; 20 min 30°C then 10 min on ice; 2% agarose, 0.5x TBE …
T1 sequence: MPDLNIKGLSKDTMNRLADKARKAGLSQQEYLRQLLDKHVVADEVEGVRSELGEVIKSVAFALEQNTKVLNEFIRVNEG

[2] = target: T2, Aux2LS20-His6 (p57) (Bacillus subtilis plasmid pLS20cat) (UniProt E9RJ22); test: EMSA; conditions: EMSA: 20 mM Tris-HCl pH 8, 1 mM EDTA, 5 mM MgCl2, 0.5 mM DTT, 100 mM KCl, 10% glycerol, 0.05 mg/ml BSA; 20 min 30°C then 10 min on ice; 2% agarose, 0.5x TBE …
T2 sequence: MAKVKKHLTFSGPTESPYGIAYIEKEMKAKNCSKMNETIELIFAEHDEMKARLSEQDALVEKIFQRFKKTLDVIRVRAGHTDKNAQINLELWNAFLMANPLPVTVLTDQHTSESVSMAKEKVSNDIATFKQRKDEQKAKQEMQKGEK

[3] = target: Aux1_(LS20) with a C-terminal His(6) tag (Bacillus subtilis (plasmid pLS20cat)); test: AUC + other: dynamic light scattering; sedimentation velocity of the purified protein alone at 12 uM; diffusion coefficient from DLS combined with the S-value in the Svedberg equation; conditions as in Ramachandran et al., 2017
[4] = target: Aux1_(LS20) with a C-terminal His(6) tag (Bacillus subtilis (plasmid pLS20cat)); test: AUC; sedimentation equilibrium of the purified protein alone at 12 uM, best fit to a single species model; conditions as in Ramachandran et al., 2017
[5] = target: Aux2_(LS20) with a C-terminal His(6) tag (Bacillus subtilis (plasmid pLS20cat)); test: AUC + other: dynamic light scattering; sedimentation velocity of the purified protein alone at 12 uM; diffusion coefficient from DLS combined with the S-value in the Svedberg equation; conditions as in Ramachandran et al., 2017
[6] = target: Aux2_(LS20) with a C-terminal His(6) tag (Bacillus subtilis (plasmid pLS20cat)); test: AUC; sedimentation equilibrium of the purified protein alone at 12 uM, best fit to a single species model; conditions as in Ramachandran et al., 2017

Substance | binding [1] | binding [2] | further results
CATCGATTTCTGCACATTACTTTGCAACGATCTGTTCAAATAAGTGTTTCTTTTTCCAAGGCTTTTTGCGGCAGCAAAAAGCCGGCCCCCGATTCCGAAGGAAGGAGGGGGTGGAAAAGGAAAGAGCATAAGGGGAAACTGGCACCATTTGCATGGTGAAACCGCAGTGCGGTTTGTTTTTTCGTGGTACCAGATTTATTG (double strand) [F29] | binds | no binding | 
ACGAGCAAAGAAATGCTAGGTGAACTTGAAAAACGGAATGAATTATTGAAGAAAAGAAAGAGCAATCTCGTCATCGAAGACTAAATTTCTGTATGGAAAACAGTTATTTTTCGTGTGCATAAAATAAAGATTTATGTGCATTTAGTTCTAAATCACCTAAATAATGGTTGAACATAAATGTTTTTTTTATGTGCATTCAGC (double strand) [F21] |  | binds | 
GCAAATGGTGCCAGTTTCCCCTTATGCTCTTTCCTTTTCCACCCCCTCCTTCCTTCGGAATCGGGGGCCGGCTTTTTGCTGCCGCAAAAAGCCTTGGAAAAAGAAACACTTATTTGAACAGATCGTTGCAAAGTAATGTGCAGAAATCGATGAAAAGGAGCGTTAACAAATGCCGGATCTCAACATCAAAGGTCTTTCAA (double strand) [F31] |  | no binding | 
AAATCACCTAAATAATGGTTGAACATAAATGTTTTTTTTATGTGCATTCAGCAATAAATCTGGTACCACGAAAAAACAAACCGCACTGCGGTTTCACCATGCAAATGGTGCCAGTTTCCCCTTATGCTCTTTCCTTTTCCACCCCCTCCTTCCTTCGGAATCGGGGGCCGGCTTTTTGCTGCCGCAAAAAGCCTTGGAAA (double strand) [F27] | binds | binds more weakly | 
CGAAGACTAAATTTCTGTATGGAAAACAGTTATTTTTCGTGTGCATAAAATAAAGATTTATGTGCATTTAGTTCTAAATCACCTAAATAATGGTTGAACATAAATGTTTTTTTTATGTGCATTCAGCAATAAATCTGGTACCACGAAAAAACAAACCGCACTGCGGTTTCACCATGCAAATGGTGCCAGTTTCCCCTTAT (double strand) [F24] | binds | binds | 
ATGGTGAAACCGCAGTGCGGTTTGTTTTTTCGTGGTACCAGATTTATTGCTGAATGCACATAAAAAAAACATTTATGTTCAACCATTATTTAGGTGATTTAGAACTAAATGCACATAAATCTTTATTTTATGCACACGAAAAATAACTGTTTTCCATACAGAAATTTAGTCTTCGATGACGAGATTGCTCTTTCTTTTCT (double strand) [F23] | binds | binds | 
CGGCATTTGTTAACGCTCCTTTTCATCGATTTCTGCACATTACTTTGCAACGATCTGTTCAAATAAGTGTTTCTTTTTCCAAGGCTTTTTGCGGCAGCAAAAAGCCGGCCCCCGATTCCGAAGGAAGGAGGGGGTGGAAAAGGAAAGAGCATAAGGGGAAACTGGCACCATTTGCATGGTGAAACCGCAGTGCGGTTTGT (double strand) [F30] |  | no binding | 
TAAATGTTTTTTTTATGTGCATTCAGCAATAAATCTGGTACCACGAAAAAACAAACCGCACTGCGGTTTCACCATGCAAATGGTGCCAGTTTCCCCTTATGCTCTTTCCTTTTCCACCCCCTCCTTCCTTCGGAATCGGGGGCCGGCTTTTTGCTGCCGCAAAAAGCCTTGGAAAAAGAAACACTTATTTGAACAGATCG (double strand) [F28] | binds | binds more weakly | 
TGAGAAAGTCCTGCCTTCCTCGCTTTATCCGCAAGCCTATTCATTGTATCTTTTGAAAGACCTTTGATGTTGAGATCCGGCATTTGTTAACGCTCCTTTTCATCGATTTCTGCACATTACTTTGCAACGATCTGTTCAAATAAGTGTTTCTTTTTCCAAGGCTTTTTGCGGCAGCAAAAAGCCGGCCCCCGATTCCGAAGG (double strand) [F33] |  | no binding | 
Aux1_(LS20) with a C-terminal His(6) tag (natural protein) |  |  | stoichiometry N [3]: 4; stoichiometry N [4]: 4
CAGTTATTTTTCGTGTGCATAAAATAAAGATTTATGTGCATTTAGTTCTAAATCACCTAAATAATGGTTGAACATAAATGTTTTTTTTATGTGCATTCAGCAATAAATCTGGTACCACGAAAAAACAAACCGCACTGCGGTTTCACCATGCAAATGGTGCCAGTTTCCCCTTATGCTCTTTCCTTTTCCACCCCCTCCTTC (double strand) [F25] | binds | binds | 
TTTTTCGTGGTACCAGATTTATTGCTGAATGCACATAAAAAAAACATTTATGTTCAACCATTATTTAGGTGATTTAGAACTAAATGCACATAAATCTTTATTTTATGCACACGAAAAATAACTGTTTTCCATACAGAAATTTAGTCTTCGATGACGAGATTGCTCTTTCTTTTCTTCAATAATTCATTCCGTTTTTCAAG (double strand) [F22] | binds | binds | 
TAAAGATTTATGTGCATTTAGTTCTAAATCACCTAAATAATGGTTGAACATAAATGTTTTTTTTATGTGCATTCAGCAATAAATCTGGTACCACGAAAAAACAAACCGCACTGCGGTTTCACCATGCAAATGGTGCCAGTTTCCCCTTATGCTCTTTCCTTTTCCACCCCCTCCTTCCTTCGGAATCGGGGGCCGGCTTT (double strand) [F26] | binds | binds more weakly | 
Aux2_(LS20) with a C-terminal His(6) tag (natural protein) |  |  | stoichiometry N [5]: 6; stoichiometry N [6]: 6
GCTCTTTCCTTTTCCACCCCCTCCTTCCTTCGGAATCGGGGGCCGGCTTTTTGCTGCCGCAAAAAGCCTTGGAAAAAGAAACACTTATTTGAACAGATCGTTGCAAAGTAATGTGCAGAAATCGATGAAAAGGAGCGTTAACAAATGCCGGATCTCAACATCAAAGGTCTTTCAAAAGATACAATGAATAGGCTTGCGGA (double strand) [F32] |  | no binding | 
